Data taken from article PMC8211105.

Experiments:
[1] = target: MxiN with an N-terminal His6-tag, purified (S. flexneri) (UniProt Q6XVX6); assay: BLI; His6-MxiN immobilised on Ni-NTA biosensor tips; untagged Spa33 at 400, 200, 100, 50, 25 and 12.5 µg/mL; PBS with 10% glycerol, 0.01% BSA, 0.002% Tween 20; 25°C; Octet RED96; 1:1 Langmuir model; KD from the equilibrium response (Req)
[2] = target: Spa33^C, purified recombinant (S. flexneri); assay: SEC; Spa33^C alone expressed in E. coli and purified by IMAC and Superdex 200 (20 mM Tris, 200 mM NaCl, pH 7.5); apparent homodimer

Row | Substance | Kd [1] [nM] | stoichiometry N [2]
1 | Wild-type Spa33 heterotrimer (one Spa33^FL with two Spa33^C), purified, untagged (from UniProt P0A1K9 1-293) (complex) | 550 | –
2 | Spa33^C, purified recombinant (domain or fragment) | – | 2
